Key:
[1] = molecular target: T1, biotin-conjugated bovine serum albumin (bovine, UniProt P02769 25-607); test: SPR (BIAcoreX), biotin-conjugated BSA immobilised on CM5 chip, mutein in solution
T1 construct: Immobilised on a CM5 sensor chip; also called biotinylated bovine serum albumin (BSA)
Protocol: (§1) The kinetic parameters (both on- and off-rates for interaction with biotin) of streptavidin muteins were determined in real time using the surface plasmon resonance based BIAcoreX biosensor. Biotin-conjugated bovine serum albumin immobilized on CM5 sensor chip was used to study the reversibility of biotin binding (Qureshi, 2001).

[2] = molecular target: the molecule itself; test: SDS-PAGE/Western blot of non-boiled culture supernatant; self-association of subunits
[3] = molecular target: T1, biotin-conjugated bovine serum albumin; test: SPR (BIAcoreX), biotin-conjugated BSA immobilised on CM5 chip, mutein in solution; Kd = kd/ka
Protocol: as §1

[4] = molecular target: the molecule itself; test: SDS-PAGE/Western blot of non-boiled culture supernatant, 20 uM biotin in medium; self-association of subunits
Protocol: FIG. 3: Western blot analysis of cell culture supernatants from B. subtilis strains producing streptavidin muteins carrying a single mutation. 15 μl of non-boiled sample of culture supernatant was loaded to each lane. Samples on the left set were collected from B. subtilis strains cultured in super-rich medium without additional supplement of biotin. Samples on the right set were collected from B. subtilis strains cultured in super-rich medium with additional supplementation of biotin (20 μM). The blot was probed with polyclonal antibodies against streptavidin and developed using 4-chloro-1-napthol (Bio-Rad) as the colour development agent. […] M, molecular weight markers; wt, wild type streptavidin.
FIG. 4: Analysis of culture supernatants from B. subtilis strains producing streptavidin muteins carrying different combinations of mutations. All these strains were cultivated in super-rich medium supplemented with biotin (20 μM). The 15 μl of non-boiled samples of culture supernatants were loaded. FIG. 4A. Coomassie blue stained SDS-polyacrylamide gel. Bands corresponding to tetrameric and monomeric streptavidin are marked by an asterisk and an arrowhead, respectively. FIG. 4B. Western blot probed with polyclonal antibodies against streptavidin. […]

T1 sequence (P02769 25-607 limits assumed): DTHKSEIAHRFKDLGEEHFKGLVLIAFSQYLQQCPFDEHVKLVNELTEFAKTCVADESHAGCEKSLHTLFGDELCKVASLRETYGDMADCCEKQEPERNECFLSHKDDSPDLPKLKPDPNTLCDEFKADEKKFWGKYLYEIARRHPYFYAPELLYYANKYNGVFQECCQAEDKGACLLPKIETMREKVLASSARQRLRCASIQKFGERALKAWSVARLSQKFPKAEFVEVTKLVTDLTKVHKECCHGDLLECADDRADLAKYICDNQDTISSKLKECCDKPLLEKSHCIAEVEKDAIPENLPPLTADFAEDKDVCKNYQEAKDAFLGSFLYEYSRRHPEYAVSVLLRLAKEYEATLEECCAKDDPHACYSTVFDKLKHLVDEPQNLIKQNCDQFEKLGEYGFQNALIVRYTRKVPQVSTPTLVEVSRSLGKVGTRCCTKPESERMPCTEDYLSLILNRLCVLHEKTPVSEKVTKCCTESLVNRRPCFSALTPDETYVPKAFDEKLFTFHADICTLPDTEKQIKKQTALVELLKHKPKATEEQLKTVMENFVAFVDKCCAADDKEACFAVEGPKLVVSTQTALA

B1: streptavidin mutein M4 (T76R, V125R, V55T, L109T), secreted by B. subtilis (other)
chain: DPSKDSKAQVSAAEAGITGTWYNQLGSTFIVTAGADGALTGTYESAVGNAESRYTLTGRYDSAPATDGSGTALGWRVAWKNNYRNAHSATTWSGQYVGGAEARINTQWTLTSGTTEANAWKSTLRGHDTFTKVKPSAASIDAAKKAGVNNGNPLDAVQQ
notes: Monomeric in solution; also called M4 mutein
**Q.** With B1 as the binder, how does the koff [1] read?
**A.** 0.00339 s⁻¹

**Q.** What about the kon [1] of the same binder?
**A.** 18000 M⁻¹ s⁻¹

**Q.** What about the “% tetramer, no additional biotin” value [2] of the same binder?
**A.** 0%

**Q.** What about the Kd [3] of the same binder?
**A.** 187 nM

**Q.** And the “% tetramer, with additional biotin” value [4]?
**A.** 0%
